For 3 substances, Kd results are on record in PMC12689202.

The assay has as its target C3b (biotinylated) (human) (UniProt P01024). The experiment in a line: BLI; Octet RH384 (Sartorius); biotinylated C3b immobilized onto streptavidin biosensors; mini-CR1, FH or FHL-1 in the fluid phase. For orientation: In BLI a coated tip is dipped into the sample, and binding shifts an interference pattern.
By Kd is commonly meant the concentration at which binding is half-saturated. Read a high Kd as lower affinity. Turning to “factor H (from UniProt P08603 19-1231) (natural protein)”, the Kd was 583 nM. This counts as sub-micromolar.

“factor H-like protein 1 (from UniProt P08603-2 19-449) (natural protein)” came in with a Kd of 1170 nM.

Consider “mini-CR1 (soluble fragment of complement receptor 1, complement control proteins 8-10) (domain or fragment)”, for which the Kd was found to be 21 nM.
